# Measurements: US8119572B2, “Methods for determining protein binding specificity using peptide libraries” (Wisconsin Alumni Research Foundation, priority 2005, dated 2012)
# No end group written: not given here.
# Biological target: T1, SIRT1 (Homo sapiens, UniProt Q96EB6)
# T1 construct: made in house
# T1 sequence (Q96EB6 1-747): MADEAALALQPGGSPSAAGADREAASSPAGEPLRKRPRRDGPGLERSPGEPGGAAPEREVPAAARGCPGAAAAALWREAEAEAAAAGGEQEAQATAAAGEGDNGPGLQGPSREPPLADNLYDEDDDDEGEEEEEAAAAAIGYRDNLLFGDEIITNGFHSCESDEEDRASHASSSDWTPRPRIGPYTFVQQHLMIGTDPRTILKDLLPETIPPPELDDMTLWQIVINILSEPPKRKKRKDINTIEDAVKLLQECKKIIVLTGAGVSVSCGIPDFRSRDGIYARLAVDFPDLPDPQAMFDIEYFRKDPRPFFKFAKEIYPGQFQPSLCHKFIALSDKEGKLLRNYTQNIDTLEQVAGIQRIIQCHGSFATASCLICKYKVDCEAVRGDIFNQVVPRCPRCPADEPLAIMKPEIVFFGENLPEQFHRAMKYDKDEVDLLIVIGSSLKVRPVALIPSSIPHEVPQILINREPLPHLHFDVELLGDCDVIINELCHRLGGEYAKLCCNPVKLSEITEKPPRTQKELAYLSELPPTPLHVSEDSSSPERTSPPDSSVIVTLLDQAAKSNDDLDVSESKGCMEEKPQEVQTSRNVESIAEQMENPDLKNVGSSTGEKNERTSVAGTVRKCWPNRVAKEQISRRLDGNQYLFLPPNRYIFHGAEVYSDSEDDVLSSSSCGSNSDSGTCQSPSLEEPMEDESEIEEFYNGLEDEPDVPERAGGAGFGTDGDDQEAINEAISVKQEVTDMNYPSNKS
# Assay: Radioactive TLC-based [32P]-NAD+ in-solution kinetic analysis of resynthesized hits and non-hits
# Format: biochemical
# Conditions: for fold difference in catalytic activity in favor over WP(AcK)QQ: compared with WP(AcK)QQ, Table 3 values
# Procedure: All solution phase Sir2 assays were carried out at 25° C. in 50 mM Tris.HCl. Reactions were done in 50-100 μL with 0.1-1.5 μM enzyme, 0.1-1.2 mM NAD^+, 0.5-1000 μM peptide and 1 mM DTT. Reaction mixtures were quenched with TFA to a final concentration of 1% after 5-10 min and nicotinamide levels were quantitated by HPLC at 264 nm.
# Alternatively, [^32P]-NAD^+ (10 mCi/mL) was used in assays and quenched reaction mixtures were spotted on a silica TLC plate and run in a chamber containing 60% ethanol and 40 2.5 mM ammonium acetate for 3-4 hours. Levels of ^32P-OAADPr and ^32P-NAD^+ were then quantitated by phosphorimaging and the fraction turnover was calculated. Saturation curves were done at varying concentrations of peptide while holding that of NAD^+ constant. Time points were chosen such that product formation never exceeded 20% conversion and data were plotted as rate (s^−1) vs. peptide concentration. Plots were fitted to the Michaelis-Menten equation, v=[(kcat/Km)[S]]/(1+[S]/Km) using Kaleidagraph software (Reading, Pa.) to extract Km and kcat/Km.
# To validate the results of the library screen, select hits and non-hits were resynthesized and subjected to in-solution kinetic analysis (Table 3). A radioactive TLC-based assay was employed with subsaturating levels of [^32P]-NAD^+ to determine the relative catalytic efficiencies (Jackson et al., 2003, J. Biol. Chem. 278: 50985-50998). In addition, two “consensus” peptides containing residues occurring with the highest and lowest frequency at each position, independent of context, were analyzed. For comparison, a 5-mer comprised of a sequence corresponding to a known site for p53 deacetylation by SIRT1 was assayed (Table 3).
# In Table 3, efficiencies (^x=average) were obtained by fitting the data from [^32P]-NAD^+ assays to the modified Michaelis-Menten equation, v=[(kcat/Km)[S]]/(1+[S]/Km). […] Catalytic efficiencies of peptides containing the residues of the highest^b/lowest^c frequency at each position and the sequence relevant to p53 deacetylation in vivo^d are shown for comparison.
fold difference in catalytic activity in favor over WP(AcK)QQ,"catalytic activity, comparison of hits and non-hits in words (in-solution kinetic analysis)",Substance
seven,,WH(AcK)QQ (Ac-WHK(Ac)QQ)
18 fold,,QP(AcK)QI (Ac-QPK(Ac)QI) [resynthesized select hit of SIRT1 library screen]
,comparable to those of a few of the hits,AY(AcK)EV (Ac-AYK(Ac)EV) [resynthesized select non-hit]
